Drawing on patent US5478723A, “Method and apparatus for determining the role of cytochrome P450 and related enzymes in the metabolism of drugs and other chemicals” (priority 1993, dated 1995), this text covers degradation on storage for four molecules.

This data set in a line: Storage stability of P450 enzymes in frozen human liver. The format is physicochemical. Conditions: human liver at -65 to -90 degrees C, up to six months. From the text: P450 enzymes in frozen liver microsomes appear to be relatively stable.

B1: CYP2E1: P450 enzyme in frozen human liver (protein, UniProt P05181 1-493, looked up)
Cytochrome P450 2E1: MSALGVTVALLVWAAFLLLVSMWRQVHSSWNLPPGPFPLPIIGNLFQLELKNIPKSFTRLAQRFGPVFTLYVGSQRMVVMHGYKAVKEALLDYKDEFSGRGDLPAFHAHRDRGIIFNNGPTWKDIRRFSLTTLRNYGMGKQGNESRIQREAHFLLEALRKTQGQPFDPTFLIGCAPCNVIADILFRKHFDYNDEKFLRLMYLFNENFHLLSTPWLQLYNNFPSFLHYLPGSHRKVIKNVAEVKEYVSERVKEHHQSLDPNCPRDLTDCLLVEMEKEKHSAERLYTMDGITVTVADLFFAGTETTSTTLRYGLLILMKYPEIEEKLHEEIDRVIGPSRIPAIKDRQEMPYMDAVVHEIQRFITLVPSNLPHEATRDTIFRGYLIPKGTVVVPTLDSVLYDNQEFPDPEKFKPEHFLNENGKFKYSDYFKPFSTGKRVCAGEGLARMELFLLLCAILQHFNLKPLVDPKDIDLSPIHIGFGCIPPRYKLCVIPRS
In the case of B1, the degradation on storage result is listed as “no detectable degradation”.

B2: CYP2A6: P450 enzyme in frozen human liver (protein, UniProt P11509 1-494, looked up)
Cytochrome P450 2A6: MLASGMLLVALLVCLTVMVLMSVWQQRKSKGKLPPGPTPLPFIGNYLQLNTEQMYNSLMKISERYGPVFTIHLGPRRVVVLCGHDAVREALVDQAEEFSGRGEQATFDWVFKGYGVVFSNGERAKQLRRFSIATLRDFGVGKRGIEERIQEEAGFLIDALRGTGGANIDPTFFLSRTVSNVISSIVFGDRFDYKDKEFLSLLRMMLGIFQFTSTSTGQLYEMFSSVMKHLPGPQQQAFQLLQGLEDFIAKKVEHNQRTLDPNSPRDFIDSFLIRMQEEEKNPNTEFYLKNLVMTTLNLFIGGTETVSTTLRYGFLLLMKHPEVEAKVHEEIDRVIGKNRQPKFEDRAKMPYMEAVIHEIQRFGDVIPMSLARRVKKDTKFRDFFLPKGTEVYPMLGSVLRDPSFFSNPQDFNPQHFLNEKGQFKKSDAFVPFSIGKRNCFGEGLARMELFLFFTTVMQNFRLKSSQSPKDIDVSPKHVGFATIPRNYTMSFLPR
Turning to B2, the degradation on storage result is given as “no detectable degradation”.

B3: CYP2D6: P450 enzyme in frozen human liver (protein, UniProt P10635 1-497, looked up)
Cytochrome P450 2D6: MGLEALVPLAVIVAIFLLLVDLMHRRQRWAARYPPGPLPLPGLGNLLHVDFQNTPYCFDQLRRRFGDVFSLQLAWTPVVVLNGLAAVREALVTHGEDTADRPPVPITQILGFGPRSQGVFLARYGPAWREQRRFSVSTLRNLGLGKKSLEQWVTEEAACLCAAFANHSGRPFRPNGLLDKAVSNVIASLTCGRRFEYDDPRFLRLLDLAQEGLKEESGFLREVLNAVPVLLHIPALAGKVLRFQKAFLTQLDELLTEHRMTWDPAQPPRDLTEAFLAEMEKAKGNPESSFNDENLRIVVADLFSAGMVTTSTTLAWGLLLMILHPDVQRRVQQEIDDVIGQVRRPEMGDQAHMPYTTAVIHEVQRFGDIVPLGVTHMTSRDIEVQGFRIPKGTTLITNLSSVLKDEAVWEKPFRFHPEHFLDAQGHFVKPEAFLPFSAGRRACLGEPLARMELFLFFTSLLQHFSFSVPTGQPRPSHHGVFAFLVSPSPYELCAVPR
B3: the degradation on storage result was “no detectable degradation”.

B4: CYP1A2: P450 enzyme in frozen human liver (protein, UniProt P05177 2-516, looked up)
Cytochrome P450 1A2: ALSQSVPFSATELLLASAIFCLVFWVLKGLRPRVPKGLKSPPEPWGWPLLGHVLTLGKNPHLALSRMSQRYGDVLQIRIGSTPVLVLSRLDTIRQALVRQGDDFKGRPDLYTSTLITDGQSLTFSTDSGPVWAARRRLAQNALNTFSIASDPASSSSCYLEEHVSKEAKALISRLQELMAGPGHFDPYNQVVVSVANVIGAMCFGQHFPESSDEMLSLVKNTHEFVETASSGNPLDFFPILRYLPNPALQRFKAFNQRFLWFLQKTVQEHYQDFDKNSVRDITGALFKHSKKGPRASGNLIPQEKIVNLVNDIFGAGFDTVTTAISWSLMYLVTKPEIQRKIQKELDTVIGRERRPRLSDRPQLPYLEAFILETFRHSSFLPFTIPHSTTRDTTLNGFYIPKKCCVFVNQWQVNHDPELWEDPSEFRPERFLTADGTAINKPLSEKMMLFGMGKRRCIGEVLAKWEIFLFLAILLQQLEFSVPPGVKVDLTPIYGLTMKHARCEHVQARLRFSIN
Turning to B4, the degradation on storage entry was “no detectable degradation”.
